As usually defined, the Kd is the concentration at which binding is half-saturated. Usually stoichiometry N stands for the number of molecules, sites or subunits per partner or assembly.

Consider eleven molecules from paper PMC10891134, “Bacteria employ lysine acetylation of transcriptional regulators to adapt gene expression to cellular metabolism” (Nature Communications, 2024).

Data set [1] has as its target RutR AcK11 K11AcK (Escherichia coli K12?) (UniProt P0ACU2). Kind of data set: ITC. The note with it: ITC: 100 mM potassium phosphate pH 6.4, 150 mM NaCl, 5 mM MgCl2, 2 mM b-ME, 20 or 25 C; SPR: 100 mM potassium phosphate pH 6.4, 300 mM NaCl, 0.05% Tween20 ….
Data set [2] addresses RutR AcK150 K150AcK (Escherichia coli K12?) (UniProt P0ACU2). Briefly: ITC. As to conditions: ITC: 100 mM potassium phosphate pH 6.4, 150 mM NaCl, 5 mM MgCl2, 2 mM b-ME, 20 or 25 C; SPR: 100 mM potassium phosphate pH 6.4, 300 mM NaCl, 0.05% Tween20 ….
Data set [3] addresses RutR AcK21 K21AcK (Escherichia coli K12?) (UniProt P0ACU2). Kind of data set: ITC. The note with it: ITC: 100 mM potassium phosphate pH 6.4, 150 mM NaCl, 5 mM MgCl2, 2 mM b-ME, 20 or 25 C; SPR: 100 mM potassium phosphate pH 6.4, 300 mM NaCl, 0.05% Tween20 ….
In data set [4] the target is RutR AcK7 K7AcK (Escherichia coli K12?) (UniProt P0ACU2). Briefly: ITC. The note with it: ITC: 100 mM potassium phosphate pH 6.4, 150 mM NaCl, 5 mM MgCl2, 2 mM b-ME, 20 or 25 C; SPR: 100 mM potassium phosphate pH 6.4, 300 mM NaCl, 0.05% Tween20 ….
The target in data set [5] is RutR AcK7/11 K7AcK;K11AcK (Escherichia coli K12?) (UniProt P0ACU2). Briefly: ITC. As to conditions: ITC: 100 mM potassium phosphate pH 6.4, 150 mM NaCl, 5 mM MgCl2, 2 mM b-ME, 20 or 25 C; SPR: 100 mM potassium phosphate pH 6.4, 300 mM NaCl, 0.05% Tween20 ….
Data set [6] has as its target RutR AcK95 K95AcK (Escherichia coli K12?) (UniProt P0ACU2). Kind of data set: ITC. As to conditions: ITC: 100 mM potassium phosphate pH 6.4, 150 mM NaCl, 5 mM MgCl2, 2 mM b-ME, 20 or 25 C; SPR: 100 mM potassium phosphate pH 6.4, 300 mM NaCl, 0.05% Tween20 ….
The target of data set [7] is RutR AcK7/11 K7AcK;K11AcK (Escherichia coli K12?) (UniProt P0ACU2). Kind of data set: SPR. The note with it: ITC: 100 mM potassium phosphate pH 6.4, 150 mM NaCl, 5 mM MgCl2, 2 mM b-ME, 20 or 25 C; SPR: 100 mM potassium phosphate pH 6.4, 300 mM NaCl, 0.05% Tween20 ….
Data set [8] deals with the molecule itself. Briefly: SEC; analytical size-exclusion chromatography of the purified RutR proteins; elution as dimer; column and buffer not given.

Regarding “GTTTTATGTGCAACTGTTTTGACCGTTTAGTCCACTTTTTACCAGATATTTTAG (double strand) [boxrutA]”, the Kd in data set [1] came to 95 nM; in data set [2], 72 nM; in data set [3], 58 nM; in data set [4] it was 94 nM; in data set [5], 251 nM; in data set [6] it was 32 nM.

The molecule “GTTTTAATGTAAATTTTGACCATTTGGTCCACTTTTTTCTGCTCGT (double strand) [biotin-boxcarA]” returned a binding signal (fold reduced affinity vs WT) in data set [7] of 8.

B1: non-acetylated RutR (pyrimidine utilization repressor) wild type (natural protein, E. coli, UniProt P0ACU2 1-212, looked up)
chain: MTQGAVKTTGKRSRAVSAKKKAILSAALDTFSQFGFHGTRLEQIAELAGVSKTNLLYYFPSKEALYIAVLRQILDIWLAPLKAFREDFAPLAAIKEYIRLKLEVSRDYPQASRLFCMEMLAGAPLLMDELTGDLKALIDEKSALIAGWVKSGKLAPIDPQHLIFMIWASTQHYADFAPQVEAVTGATLRDEVFFNQTVENVQRIIIEGIRPR
notes: RutR, TetR-family transcriptional regulator of Escherichia coli; called full-length RutR WT; Expressed from a modified pRSFDuet-1 that carries a G to P mutation after the start Met of the tag region; No tag cleavage is described; also called RutR WT; source: E. coli BL21 (DE3), purified (Ni-NTA, SEC)
With B1, the “stoichiometry N” value in data set [8] was 2.

B2: RutR AcK95 (site-specifically K95-acetylated RutR) (natural protein, E. coli)
chain: MTQGAVKTTGKRSRAVSAKKKAILSAALDTFSQFGFHGTRLEQIAELAGVSKTNLLYYFPSKEALYIAVLRQILDIWLAPLKAFREDFAPLAAIKEYIRLKLEVSRDYPQASRLFCMEMLAGAPLLMDELTGDLKALIDEKSALIAGWVKSGKLAPIDPQHLIFMIWASTQHYADFAPQVEAVTGATLRDEVFFNQTVENVQRIIIEGIRPR
modifications: acetyl-lysine at 95
notes: RutR of Escherichia coli; rutR gene as in m1 with an amber stop codon at K95 for acetyl-L-lysine; Same rutR construct as m1 apart from the amber codon; constructs are in Supplementary Data 4; source: E. coli BL21 (DE3), genetic code expansion (acetyl-L-lysine at an amber codon), purified
Take B2: the “stoichiometry N” value in data set [8] worked out at 2.

B3: RutR AcK150 (site-specifically K150-acetylated RutR) (natural protein, E. coli)
chain: MTQGAVKTTGKRSRAVSAKKKAILSAALDTFSQFGFHGTRLEQIAELAGVSKTNLLYYFPSKEALYIAVLRQILDIWLAPLKAFREDFAPLAAIKEYIRLKLEVSRDYPQASRLFCMEMLAGAPLLMDELTGDLKALIDEKSALIAGWVKSGKLAPIDPQHLIFMIWASTQHYADFAPQVEAVTGATLRDEVFFNQTVENVQRIIIEGIRPR
modifications: acetyl-lysine at 150
notes: RutR of Escherichia coli; rutR gene as in m1 with an amber stop codon at K150 for acetyl-L-lysine; Same rutR construct as m1 apart from the amber codon; constructs are in Supplementary Data 4; source: E. coli BL21 (DE3), genetic code expansion (acetyl-L-lysine at an amber codon), purified
For B3, in data set [8], the “stoichiometry N” value is 2.

B4: RutR AcK62 (site-specifically K62-acetylated RutR) (natural protein, E. coli)
chain: MTQGAVKTTGKRSRAVSAKKKAILSAALDTFSQFGFHGTRLEQIAELAGVSKTNLLYYFPSKEALYIAVLRQILDIWLAPLKAFREDFAPLAAIKEYIRLKLEVSRDYPQASRLFCMEMLAGAPLLMDELTGDLKALIDEKSALIAGWVKSGKLAPIDPQHLIFMIWASTQHYADFAPQVEAVTGATLRDEVFFNQTVENVQRIIIEGIRPR
modifications: acetyl-lysine at 62
notes: RutR of Escherichia coli; rutR gene as in m1 with an amber stop codon at K62 for acetyl-L-lysine; Same rutR construct as m1 apart from the amber codon; constructs are in Supplementary Data 4; source: E. coli BL21 (DE3), genetic code expansion (acetyl-L-lysine at an amber codon), purified
Take B4: in data set [8], the “stoichiometry N” value came out at 2.

B5: RutR AcK7 (site-specifically K7-acetylated RutR) (natural protein, E. coli)
chain: MTQGAVKTTGKRSRAVSAKKKAILSAALDTFSQFGFHGTRLEQIAELAGVSKTNLLYYFPSKEALYIAVLRQILDIWLAPLKAFREDFAPLAAIKEYIRLKLEVSRDYPQASRLFCMEMLAGAPLLMDELTGDLKALIDEKSALIAGWVKSGKLAPIDPQHLIFMIWASTQHYADFAPQVEAVTGATLRDEVFFNQTVENVQRIIIEGIRPR
modifications: acetyl-lysine at 7
notes: RutR of Escherichia coli; rutR gene as in m1 with an amber stop codon at K7 for acetyl-L-lysine; Same rutR construct as m1 apart from the amber codon; constructs are in Supplementary Data 4; source: E. coli BL21 (DE3), genetic code expansion (acetyl-L-lysine at an amber codon), purified
Turning to B5, the “stoichiometry N” value in data set [8] was 2.

B6: RutR AcK11 (site-specifically K11-acetylated RutR) (natural protein, E. coli)
chain: MTQGAVKTTGKRSRAVSAKKKAILSAALDTFSQFGFHGTRLEQIAELAGVSKTNLLYYFPSKEALYIAVLRQILDIWLAPLKAFREDFAPLAAIKEYIRLKLEVSRDYPQASRLFCMEMLAGAPLLMDELTGDLKALIDEKSALIAGWVKSGKLAPIDPQHLIFMIWASTQHYADFAPQVEAVTGATLRDEVFFNQTVENVQRIIIEGIRPR
modifications: acetyl-lysine at 11
notes: RutR of Escherichia coli; rutR gene as in m1 with an amber stop codon at K11 for acetyl-L-lysine; Same rutR construct as m1 apart from the amber codon; constructs are in Supplementary Data 4; source: E. coli BL21 (DE3), genetic code expansion (acetyl-L-lysine at an amber codon), purified
For the molecule B6, the “stoichiometry N” value in data set [8] was found to be 2.

B7: double-acetylated RutR AcK7/11 (natural protein, E. coli)
chain: MTQGAVKTTGKRSRAVSAKKKAILSAALDTFSQFGFHGTRLEQIAELAGVSKTNLLYYFPSKEALYIAVLRQILDIWLAPLKAFREDFAPLAAIKEYIRLKLEVSRDYPQASRLFCMEMLAGAPLLMDELTGDLKALIDEKSALIAGWVKSGKLAPIDPQHLIFMIWASTQHYADFAPQVEAVTGATLRDEVFFNQTVENVQRIIIEGIRPR
modifications: acetyl-lysine at 7 and at 11
notes: RutR of Escherichia coli; rutR gene as in m1 with amber stop codons at K7 and K11 for acetyl-L-lysine; Same rutR construct as m1 apart from the amber codons; constructs are in Supplementary Data 4; also called K7- and K11-double-acetylated RutR; source: E. coli BL21 (DE3), genetic code expansion with an additional plasmid for the optimized MbtRNAopt, purified
For B7, the “stoichiometry N” value in data set [8] turned out to be 2.

B8: RutR AcK21 (site-specifically K21-acetylated RutR) (natural protein, E. coli)
chain: MTQGAVKTTGKRSRAVSAKKKAILSAALDTFSQFGFHGTRLEQIAELAGVSKTNLLYYFPSKEALYIAVLRQILDIWLAPLKAFREDFAPLAAIKEYIRLKLEVSRDYPQASRLFCMEMLAGAPLLMDELTGDLKALIDEKSALIAGWVKSGKLAPIDPQHLIFMIWASTQHYADFAPQVEAVTGATLRDEVFFNQTVENVQRIIIEGIRPR
modifications: acetyl-lysine at 21
notes: RutR of Escherichia coli; rutR gene as in m1 with an amber stop codon at K21 for acetyl-L-lysine; Same rutR construct as m1 apart from the amber codon; constructs are in Supplementary Data 4; source: E. coli BL21 (DE3), genetic code expansion (acetyl-L-lysine at an amber codon), purified
Consider B8, for which, in data set [8], the “stoichiometry N” value worked out at 2.

B9: RutR AcK52 (site-specifically K52-acetylated RutR) (natural protein, E. coli)
chain: MTQGAVKTTGKRSRAVSAKKKAILSAALDTFSQFGFHGTRLEQIAELAGVSKTNLLYYFPSKEALYIAVLRQILDIWLAPLKAFREDFAPLAAIKEYIRLKLEVSRDYPQASRLFCMEMLAGAPLLMDELTGDLKALIDEKSALIAGWVKSGKLAPIDPQHLIFMIWASTQHYADFAPQVEAVTGATLRDEVFFNQTVENVQRIIIEGIRPR
modifications: acetyl-lysine at 52
notes: RutR of Escherichia coli; rutR gene as in m1 with an amber stop codon at K52 for acetyl-L-lysine; no electron density for the N-terminal 12 (chain A) or 11 (chain B) residues in the structure; Same rutR construct as m1 apart from the amber codon; constructs are in Supplementary Data 4; also called RutR AcK52•uracil; source: E. coli BL21 (DE3), genetic code expansion (acetyl-L-lysine at an amber …)
Take B9: the “stoichiometry N” value in data set [8] came out at 2.
